# Measured values taken from PMC8223116, “A novel G-quadruplex aptamer-based spike trimeric antigen test for the detection of SARS-CoV-2”.
# Target: SARS-CoV-2 spike RBD (SARS-CoV-2, UniProt P0DTC2 319-541)
# Test: ALISA
row,Binder,binding result
1,TCGTTGGTGGCGGCGTGCCCGGGGCACGGGGACGTCTCGCACGGC (ssDNA) [S13 truncated (45-mer)],no binding
2,TGGGAGCCTGGGACATAGTGGGGAAAGAGGGGAAGAGTGGGTCT (structured_DNA) [S14 truncated (44-mer)],no binding
